# Laboratory results as given in patent US20240067716A1, “IONIC LIQUID FORMULATIONS FOR TREATING INFLAMMATORY AND AUTOIMMUNE DISEASES” (i2O Therapeutics, Inc., priority 2021, published 2024).
# Experiment: Local delivery of infliximab to small intestinal tissue after intrajejunal or intravenous dosing, LC-MS/MS
# Format: in vivo, Wistar rats
# Conditions: rat, 5 h
# Description: Adult non-diabetic male Wistar rats were fasted overnight but given free access to water and subsequently dosed via intrajejunal injection (IJ) with infliximab and one of various choline-based ionic liquids, dosed via IJ with infliximab and saline, or dosed via intravenous injection (IV) with infliximab and saline.
substance,measurement,setting,value
infliximab,% of the injected infliximab dose in the local small intestinal tissue,intrajejunal injection (IJ),0.06%
same,% of the injected antibody dose in the small intestinal tissue,"intravenous injection (IV), in saline",0.95%
